Source: patent publication US20200299375A1 (TILLOTTS PHARMA, published 2020)
Residue numbers refer to the chain shown, from its start. Numbers in names are those of the source.

B1: 17-22-B03-sc08 (scFv)
scFv: MDIQMTQSPSSLSASVGDRVTITCQASQSISSYLAWYQQKPGKAPKLLIYKASTLASGVPSRFSGSGSGTDFTLTISSLQPEDFATYYCQCTYYEPSYVFRAFGGGTKLTVLGGGGGSGGGGSGGGGSGGGGSEVQLVESGGGLVQPGGSLRLSCKASGIDFSAGYDMCWVRQAPGKGLEWIACIDSRREESDYASWAKGRFTISKDSSKNTVYLQMNSLRAEDTAVYYCARGGYGGDGVDGAFDPWGQGTLVTVSS
notes: Humanized scFv, CDR-grafted light chain and structural-grafted heavy chain (CDR/STR); also called 17-22-B03-sc08 (CDR/STR); domain shuffled variant
B2: 17-22-B03-sc02 (scFv)
scFv: B1 scFv with T23K, D71E, S78D, Q80E, E82A
notes: Humanized scFv, structural graft (STR); also called 17-22-B03-sc02 (STR); structural graft
B3: 17-22-B03-sc12 (scFv)
scFv: B1 scFv with C91S
notes: Humanized scFv, CDR(C90S)/STR design; also called 17-22-B03-sc12 (CDR(C90S)/STR)
B4: recombinant human TNFβ (ligand, UniProt P01374 35-205, looked up)
chain: LPGVGLTPSAAQTARQHPKMHLAHSTLKPAAHLIGDPSKQNSLLWRANTDRAFLQDGFSLSNNSLLVPTSGIYFVYSQVVFSGKAYSPKATSSPLYLAHEVQLFSSQYPFHVPLLSSQKMVYPGLQEPWLHSMYHGAAFQLTQGDQLSTHTDGIPHLVLSPSTVFFGAFAL

Assays:
[1] = target: T1, recombinant human TNFα (human, UniProt P01375 77-233); test: inhibition ELISA, biotinylated human TNFα (960 pM) on coated TNFRII-Fc, scFv varied
T1 construct: also called tumor necrosis factor alpha; TNFαtrimer
Procedure: (§1) For the first inhibition ELISA, the extracellular domain of TNFRI fused to the Fc region of human IgG (R&D Systems, Cat. No. 372-RI) was coated on a 96-well Maxisorp ELISA at a concentration of 0.5 μg/mL. For the second inhibition ELISA, the extracellular domain of TNFRII fused to the Fc region of human IgG (R&D Systems, Cat. No. 726-R2) was coated at a concentration of 2 μg/mL. All subsequent steps were identical for both assays.

[2] = target: T1, recombinant human TNFα; test: SPR (MASS-1), TNFα immobilised by amine coupling, scFv injected 45 to 1.4 nM
Procedure: (§2) In a second step, for the best performing scFvs, Single Injection Cycle Kinetics (SiCK) were measured from a single injection cycle by simultaneously injecting six analyte samples at different concentrations into each of the eight parallel channels in the MASS-1 system. […] The apparent dissociation (kd) and association (kₐ) rate constants and the apparent dissociation equilibrium constant (KD) were calculated with the MASS-1 analysis software (Analyzer, Sierra Sensors) using one-to-one Langmuir binding model and quality of the fits was monitored based on Chi², which is a measure for the quality of the curve fitting. The smaller the value for the Chi² the more accurate is the fitting to the one-to-one Langmuir binding model. For affinity screenings, results were deemed valid if the Chi² was below 10 for the concentration analyzed. In cases where several scFv concentrations were analyzed, results were deemed valid if the average Chi^t over all the concentrations tested was below 10.

[3] = target: T1, recombinant human TNFα; test: inhibition ELISA, biotinylated human TNFα (960 pM) on coated TNFRI-Fc, scFv varied
Procedure: as §1

[4] = target: T2, Rhesus monkey TNFα (Rhesus monkey (Macaca mulatta), UniProt P48094 77-233); test: cell-based or functional assay
[5] = target: T3, recombinant Cynomolgus monkey TNFα (Cynomolgus monkey (Macaca fascicularis), UniProt P79337 77-233); test: cell-based or functional assay
[6] = target: T1, recombinant human TNFα; test: cell-based or functional assay
[7] = target: B4; test: competition ELISA, coated scFv, biotinylated TNFα, unlabeled TNFβ or TNFα as competitor
Procedure: (§3) For this purpose, the scFvs were coated on a 96-well Maxisorp ELISA plate at a concentration of 1 μg/mL. […] To control precision of the response, the dose-response curves were analyzed in duplicate.

[8] = target: T2, Rhesus monkey TNFα; test: SPR (MASS-1), TNFα immobilised by amine coupling, scFv injected 45 to 1.4 nM
Procedure: as §2

[9] = target: T3, recombinant Cynomolgus monkey TNFα; test: as above
Procedure: as §2

[10] = target: T2, Rhesus monkey TNFα; test: SPR, TNFα immobilised, scFv injected
[11] = target: T1, recombinant human TNFα; test: inhibition ELISA: biotinylated human TNFα pre-incubated with the scFv, binding to coated TNFRII-Fc detected with streptavidin-HRP [panel 17-22-B03-sc12]
Procedure: as §1

[12] = target: T1, recombinant human TNFα; test: inhibition ELISA: biotinylated human TNFα pre-incubated with the scFv, binding to coated TNFRI-Fc detected with streptavidin-HRP [panel 17-22-B03-sc12]
Procedure: as §1

[13] = target: B3; test: competition ELISA, coated scFv, biotinylated TNFα (75 ng/mL), unlabeled TNFβ varied
Procedure: as §3

[14] = target: B2; test: as above
Procedure: as §3

[15] = target: B1; test: as above
Procedure: as §3

T1 sequence (P01375 77-233 limits assumed): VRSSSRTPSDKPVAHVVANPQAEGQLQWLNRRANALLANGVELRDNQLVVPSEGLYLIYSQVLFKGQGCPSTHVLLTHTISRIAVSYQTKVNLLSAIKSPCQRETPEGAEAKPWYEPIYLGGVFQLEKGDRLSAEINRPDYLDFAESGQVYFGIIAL
T2 sequence (P48094 77-233 limits assumed): as the sequence (P01375 77-233 limits assumed) above, with R44T, T72N, R138L counted along it
T3 sequence (P79337 77-233 limits assumed): as the sequence (P01375 77-233 limits assumed) above, with L37V, R44T, T72N, R138L counted along it

Row | Binder | IC50 [1] [µg/mL] | rel. IC50 (IC50 Infliximab/IC50 scFv), blocking of TNF-TNFRII interaction [1] [ratio] | rel. IC90 (IC90 Infliximab/IC90 scFv), blocking of TNF-TNFRII interaction [1] [ratio] | Kd [2] [nM] | koff [2] [s⁻¹] | kon [2] [M⁻¹ s⁻¹] | IC50 [3] [µg/mL] | rel. IC50 (IC50 Infliximab/IC50 scFv), blocking of TNF-TNFRI interaction [3] [ratio] | rel. IC90 (IC90 Infliximab/IC90 scFv), blocking of TNF-TNFRI interaction [3] [ratio] | Species-specificity IC50 [ng/mL], L929 assay, rhesus TNFα [4] [ng/mL] | Species-specificity IC50 [ng/mL], L929 assay, cyno TNFα [5] [ng/mL] | Potency (L929 assay), rel. IC50 (IC50 Infliximab/IC50 scFv, ng/mL) [6] [ratio] | Potency (L929 assay), rel. IC90 (IC90 Infliximab/IC90 scFv, ng/mL) [6] [ratio] | Species-specificity IC50 [ng/mL], L929 assay, human TNFα [6] [ng/mL] | Target selectivity, rel. IC50 of TNFβ vs TNFα [7] [fold] | Kd [8] [nM] | koff [8] [s⁻¹] | kon [8] [M⁻¹ s⁻¹] | Kd [9] [nM] | koff [9] [s⁻¹] | further results
1 | B1 | 0.0353 | 2.8 | 2.7 | 0.061 | 6.8e-05 | 1.1e+06 | 0.0212 | 2.3 | 2.5 | 0.4 | 0.5 | 26 | 26.6 | 0.4 | > 10000 | – | – | – | – | – | –
2 | B2 | 0.0711 | 1.4 | 1.8 | 0.052 | 5.9e-05 | 1.1e+06 | 0.0334 | 1.5 | 1.4 | 0.3 | 0.6 | 23.7 | 29.4 | 0.5 | > 10000 | 0.15 | 0.00011 | 710000 | 0.05 | 6e-05 | kon [9]: 1.2e+06 M⁻¹ s⁻¹; fold difference in affinity against human TNFα [10]: ~3 fold
3 | B3 | – | 2.1 | – | 0.048 | 4e-05 | 830000 | – | 1.5 | – | 0.9 | 0.8 | 13.4 | 11.7 | 0.6 | > 10000 | 0.24 | 0.0002 | 830000 | 0.07 | 5.2e-05 | kon [9]: 750000 M⁻¹ s⁻¹; IC50 (read off the curve) [11]: ~0.03 µg/mL; IC50 (read off the curve) [12]: ~0.03 µg/mL
4 | B4 | – | – | – | – | – | – | – | – | – | – | – | – | – | – | – | – | – | – | – | – | IC50 [13]: > 1250 µg/mL; IC50 [14]: > 1250 µg/mL; IC50 [15]: > 1250 µg/mL
